Experimental data: US20180155451A1 (published 2018)

Key:
FcγRIIb = target: T1, FcγRIIb (human, UniProt P31994 43-217); assay: SPR (Biacore), captured antibody, soluble FcγR; relative to GpH7-A5/GpH7-B3/GpL16-k0
T1 construct: extracellular domain; also called FcgRIIb; 2b; not shown: His tag at the C terminus
T1 sequence (looked up): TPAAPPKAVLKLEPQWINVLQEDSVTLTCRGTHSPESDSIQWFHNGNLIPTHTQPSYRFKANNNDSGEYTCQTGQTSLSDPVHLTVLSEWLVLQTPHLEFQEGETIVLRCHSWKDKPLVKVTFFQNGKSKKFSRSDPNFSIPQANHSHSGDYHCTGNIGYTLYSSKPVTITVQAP

FcγRIa [1] = target: T2, FcγRIa (human, UniProt P12314 16-292); assay: as above
T2 construct: extracellular domain; also called FcgRI; 1a; not shown: His tag at the C terminus

FcγRIa [2] = target: T2, FcγRIa; assay: SPR; He/Con_1a divided by He/Con_2b (FcγRIIb as reference)
[3] = target: T3, FcγRIa extracellular domain with C-terminal His tag (human, UniProt P12314 16-292); assay: SPR (Biacore), antibody captured on antigen-peptide chip, FcγR as analyte; relative binding
T3 construct: extracellular domain; Expressed in FreeStyle293 cells; analyte in the Biacore assay; also called FcgRI; 1a; not shown: His tag at the C terminus

[4] = target: T4, FcγRIIb extracellular domain with C-terminal His tag (human, UniProt P31994 43-217); assay: as above
T4 construct: extracellular domain; Expressed in FreeStyle293 cells; analyte in the Biacore assay; also called FcgRIIb; 2b; not shown: His tag at the C terminus
T4 sequence (looked up): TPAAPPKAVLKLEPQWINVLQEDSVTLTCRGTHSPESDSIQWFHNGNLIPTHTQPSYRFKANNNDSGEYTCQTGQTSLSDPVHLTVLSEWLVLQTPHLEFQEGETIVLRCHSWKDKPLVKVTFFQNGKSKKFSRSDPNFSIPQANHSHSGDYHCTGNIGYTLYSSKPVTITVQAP

T2 sequence (P12314 16-292): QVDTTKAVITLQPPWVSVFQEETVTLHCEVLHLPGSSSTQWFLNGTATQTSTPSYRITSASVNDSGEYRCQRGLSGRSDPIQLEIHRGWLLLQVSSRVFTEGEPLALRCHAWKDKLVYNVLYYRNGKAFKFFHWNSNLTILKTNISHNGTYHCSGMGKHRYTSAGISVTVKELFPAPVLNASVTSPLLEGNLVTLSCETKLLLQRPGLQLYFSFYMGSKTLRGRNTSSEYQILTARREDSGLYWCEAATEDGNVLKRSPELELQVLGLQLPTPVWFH
T3 sequence (P12314 16-292): as above

B1: GpH7-A5/GpH7-B3 variant V266_20W/GpL16-k0 (antibody, human IgG1, kappa)
heavy 1: not shown
heavy 2: not shown
light: DIVMTQSPLSLPVTPGEPASISCQASESLVHSNRNTYLHWYLQKPGQSPQLLIYKVSNRFSGVPDRFSGSGSGTDFTLKISRVEAEDVGVYYCSQNTHVPPTFGQGTKVEIERTVAAPSVFIFPPSDEQLKSGTASVVCLLNNFYPREAKVQWKVDNALQSGNSQESVTEQDSKDSTYSLSSTLTLSKADYEKHKVYACEVTHQGLSSPVTKSFNRGEC
notes: He Ab: mutation only in the GpH7-B3 H chain; EU numbering; also called He Ab
**Q.** What does the source list for B1?
**A.** He/Con_2b (FcγRIIb): 71.9 relative, HeCon Ab = 100; He/Con_1a (FcγRIa [1]): 91.4 relative, HeCon Ab = 100; Ia/IIb He_1a/2b (FcγRIa [2]): 1.27 ratio

B2: GpH7-A5/GpH7-B3 variant S267_20W/GpL16-k0 (antibody, human IgG1, kappa)
heavy 1: not shown
heavy 2: not shown
light: DIVMTQSPLSLPVTPGEPASISCQASESLVHSNRNTYLHWYLQKPGQSPQLLIYKVSNRFSGVPDRFSGSGSGTDFTLKISRVEAEDVGVYYCSQNTHVPPTFGQGTKVEIERTVAAPSVFIFPPSDEQLKSGTASVVCLLNNFYPREAKVQWKVDNALQSGNSQESVTEQDSKDSTYSLSSTLTLSKADYEKHKVYACEVTHQGLSSPVTKSFNRGEC
notes: as for B1
**Q.** B2 was tested. Which He/Con_2b (FcγRIIb) did it give?
**A.** Its He/Con_2b is 57.2 relative, HeCon Ab = 100.

**Q.** What about the He/Con_1a (FcγRIa [1]) of the same binder?
**A.** The He/Con_1a was 99.4 relative, HeCon Ab = 100.

**Q.** What about the “Ia/IIb He_1a/2b” value (FcγRIa [2]) of the same binder?
**A.** The value was 1.74 ratio.

B3: GpH7-A5/GpH7-B3 variant V266_13S/GpL16-k0 (antibody, human IgG1, kappa)
heavy 1: not shown
heavy 2: not shown
light: DIVMTQSPLSLPVTPGEPASISCQASESLVHSNRNTYLHWYLQKPGQSPQLLIYKVSNRFSGVPDRFSGSGSGTDFTLKISRVEAEDVGVYYCSQNTHVPPTFGQGTKVEIERTVAAPSVFIFPPSDEQLKSGTASVVCLLNNFYPREAKVQWKVDNALQSGNSQESVTEQDSKDSTYSLSSTLTLSKADYEKHKVYACEVTHQGLSSPVTKSFNRGEC
notes: as for B1
**Q.** Which results are given for B3?
**A.** He/Con_2b (FcγRIIb): 54.4 relative, HeCon Ab = 100; He/Con_1a (FcγRIa [1]): 90.6 relative, HeCon Ab = 100; Ia/IIb He_1a/2b (FcγRIa [2]): 1.67 ratio

B4: GpH7-A5/GpH7-B3 variant E269_02A/GpL16-k0 (He Ab) (antibody, human IgG1, kappa)
heavy 1: not shown
heavy 2: not shown
light: DIVMTQSPLSLPVTPGEPASISCQASESLVHSNRNTYLHWYLQKPGQSPQLLIYKVSNRFSGVPDRFSGSGSGTDFTLKISRVEAEDVGVYYCSQNTHVPPTFGQGTKVEIERTVAAPSVFIFPPSDEQLKSGTASVVCLLNNFYPREAKVQWKVDNALQSGNSQESVTEQDSKDSTYSLSSTLTLSKADYEKHKVYACEVTHQGLSSPVTKSFNRGEC
notes: Heterodimerized anti-glypican-3 IgG1; the mutation stands in the GpH7-B3 chain only
**Q.** What does the source list for B4?
**A.** He/Con_1a [3]: 104 % of GpH7-A5/GpH7-B3/GpL16-k0 (=100); He/Con_2b [4]: 49.9 % of GpH7-A5/GpH7-B3/GpL16-k0 (=100)

B5: GpH7-A5/GpH7-B3 variant S267_16H/GpL16-k0 (antibody, human IgG1, kappa)
heavy 1: not shown
heavy 2: not shown
light: DIVMTQSPLSLPVTPGEPASISCQASESLVHSNRNTYLHWYLQKPGQSPQLLIYKVSNRFSGVPDRFSGSGSGTDFTLKISRVEAEDVGVYYCSQNTHVPPTFGQGTKVEIERTVAAPSVFIFPPSDEQLKSGTASVVCLLNNFYPREAKVQWKVDNALQSGNSQESVTEQDSKDSTYSLSSTLTLSKADYEKHKVYACEVTHQGLSSPVTKSFNRGEC
notes: as for B1
**Q.** B5 was tested. Which He/Con_2b (FcγRIIb) did it give?
**A.** Its He/Con_2b is 65.9 relative, HeCon Ab = 100.

**Q.** What about the He/Con_1a (FcγRIa [1]) of the same binder?
**A.** The He/Con_1a was 100 relative, HeCon Ab = 100.

**Q.** What about the “Ia/IIb He_1a/2b” value (FcγRIa [2]) of the same binder?
**A.** Its value is 1.52 ratio.

B6: GpH7-A5/GpH7-B3 variant V266_15Y/GpL16-k0 (antibody, human IgG1, kappa)
heavy 1: not shown
heavy 2: not shown
light: DIVMTQSPLSLPVTPGEPASISCQASESLVHSNRNTYLHWYLQKPGQSPQLLIYKVSNRFSGVPDRFSGSGSGTDFTLKISRVEAEDVGVYYCSQNTHVPPTFGQGTKVEIERTVAAPSVFIFPPSDEQLKSGTASVVCLLNNFYPREAKVQWKVDNALQSGNSQESVTEQDSKDSTYSLSSTLTLSKADYEKHKVYACEVTHQGLSSPVTKSFNRGEC
notes: as for B1
**Q.** Which results are given for B6?
**A.** He/Con_2b (FcγRIIb): 49.4 relative, HeCon Ab = 100; He/Con_1a (FcγRIa [1]): 93.3 relative, HeCon Ab = 100; Ia/IIb He_1a/2b (FcγRIa [2]): 1.89 ratio

B7: GpH7-A5/GpH7-B3 variant V266_10E/GpL16-k0 (antibody, human IgG1, kappa)
heavy 1: not shown
heavy 2: not shown
light: DIVMTQSPLSLPVTPGEPASISCQASESLVHSNRNTYLHWYLQKPGQSPQLLIYKVSNRFSGVPDRFSGSGSGTDFTLKISRVEAEDVGVYYCSQNTHVPPTFGQGTKVEIERTVAAPSVFIFPPSDEQLKSGTASVVCLLNNFYPREAKVQWKVDNALQSGNSQESVTEQDSKDSTYSLSSTLTLSKADYEKHKVYACEVTHQGLSSPVTKSFNRGEC
notes: as for B1
**Q.** With B7 as the binder, how does the He/Con_2b (FcγRIIb) read?
**A.** Its He/Con_2b is 15.2 relative, HeCon Ab = 100.

**Q.** And the He/Con_1a (FcγRIa [1])?
**A.** Its He/Con_1a is 81.9 relative, HeCon Ab = 100.

**Q.** And the “Ia/IIb He_1a/2b” value (FcγRIa [2])?
**A.** The value was 5.37 ratio.

B8: GpH7-A5/GpH7-B3 variant V266_11K/GpL16-k0 (antibody, human IgG1, kappa)
heavy 1: not shown
heavy 2: not shown
light: DIVMTQSPLSLPVTPGEPASISCQASESLVHSNRNTYLHWYLQKPGQSPQLLIYKVSNRFSGVPDRFSGSGSGTDFTLKISRVEAEDVGVYYCSQNTHVPPTFGQGTKVEIERTVAAPSVFIFPPSDEQLKSGTASVVCLLNNFYPREAKVQWKVDNALQSGNSQESVTEQDSKDSTYSLSSTLTLSKADYEKHKVYACEVTHQGLSSPVTKSFNRGEC
notes: as for B1
**Q.** With B8 as the binder, how does the He/Con_2b (FcγRIIb) read?
**A.** The He/Con_2b was 1 relative, HeCon Ab = 100.

**Q.** And the He/Con_1a (FcγRIa [1])?
**A.** Its He/Con_1a is 64.4 relative, HeCon Ab = 100.

**Q.** And the “Ia/IIb He_1a/2b” value (FcγRIa [2])?
**A.** Its value is 63.5 ratio.

B9: GpH7-A5/GpH7-B3 variant V266_01G/GpL16-k0 (antibody, human IgG1, kappa)
heavy 1: not shown
heavy 2: not shown
light: DIVMTQSPLSLPVTPGEPASISCQASESLVHSNRNTYLHWYLQKPGQSPQLLIYKVSNRFSGVPDRFSGSGSGTDFTLKISRVEAEDVGVYYCSQNTHVPPTFGQGTKVEIERTVAAPSVFIFPPSDEQLKSGTASVVCLLNNFYPREAKVQWKVDNALQSGNSQESVTEQDSKDSTYSLSSTLTLSKADYEKHKVYACEVTHQGLSSPVTKSFNRGEC
notes: as for B1
**Q.** For B9, which He/Con_2b (FcγRIIb) is on record?
**A.** Its He/Con_2b is 51.5 relative, HeCon Ab = 100.

**Q.** What about the He/Con_1a (FcγRIa [1]) of the same binder?
**A.** The He/Con_1a was 91.3 relative, HeCon Ab = 100.

**Q.** And the “Ia/IIb He_1a/2b” value (FcγRIa [2])?
**A.** Its value is 1.77 ratio.
